The target of one experiment is AdgI (Variovorax). The experiment in a line: cryo-EM structure.
Experiment [1] has as its target AdgH (Variovorax). The experiment in a line: SEC.
Experiment [2] deals with AdgH (Variovorax). The experiment in a line: cryo-EM structure.

With AdgI (enzyme), the stoichiometry N – broadly, a count of units in the complex or per binding partner – with AdgI (Variovorax) turned out to be 3. The stoichiometry N (AdgI:AdgH molar ratio) in the experiment with AdgH (Variovorax) [1] is 1. For the substance AdgH (enzyme), the stoichiometry N with AdgH (Variovorax) [2] worked out at 3.
